# From the domain aggregation screens of Martell et al. (2025)
# Assay: soluble fraction after stress (log2 fold change); higher = more stays soluble; pooled small domains, quantitative proteomics
# Details: stress: pH 4
# In short: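 Values are log2 fold changes, and higher ones mean more of the domain stayed soluble. Each fold change reflects the soluble amount of a domain after acid stress and is taken as a measure of aggregation propensity. The stress was pH 4, applied to pooled custom libraries of small protein domains analysed by high-throughput quantitative proteomics.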
row,Sequence,soluble fraction (log2)
1,HMGPKPVDMSPIPEGQRNQVLHDWMYGRAANHPENWGQIRSDALERGLKSGLKADEIHAITGSVARALGLE,0.0794
2,HMHSPTFYVHVVGQVKVPGVYELEVGSRLFDAVIAAGGFKDDADQASVNLARPLSDGEQIVVLKLGDQ,-0.732
3,HMIDQIAEQLQQRLAVDTAFATIQRDYPDVIANKDIELLTAIKVNQKIAEGASRASAMLESAKEVYETL,-0.329
4,HMNVNEIREMYPEGTQIVLTEMRGENQMPYGLKGTVKFVDDAGQIHMKWENGSSLALNINEDTFEKVE,-0.471
5,HMTDRKRDAIVQAAIGEFREHGFNGTSMDRVAAAADVSKRTVYNHFPSKEELFEAILLLMWE,-1.78
6,HMSASAIYVRPKDVKEPEEVADYLSGVLELDREKLYKKITDKSQWIALIERKVDNDIAFDIRNKKFKGIEI,-0.784
7,HMASAKTVAQSGTYKFAKTTAIKSSASDAASTVGTYYKGNTVNYNAKVTTNGQTWLRYTSYSGAQYYVKVS,0.218
8,HMNFTEAEQRFHFLEDQRQRGVLSLEQYRAELAQLRVTDAWGRLWMLQEQTGQWFVFHEGQWRPSQ,-0.266
9,HMRAAFEHLTIGQTVSGLVKSQARGVSLVEIEGQTVAMRLPQPVAVGDTLRLRFAGHMPQPVFLLDT,-0.0299
10,HMKLQIQNIEIDKKISELAEGVSAEKLPFLAKLIDRSKLLNDKGEINEDSVKAAIEEVVKAFPDFK,-0.945
11,HMNNLNDIIEIIRIYAKNYARNNPSWNHSELINRIRDKALGEAEDYNIRLSEEDLALITELSLRGL,-1.24
12,HMAGTKRAENIEIQKLTEVLEARLDSVGFFWPDHKAESMIMTLRNMISRLPLTEADVRVFHGIIKSLADK,-0.727
13,HMNLYHALDQQGEVYLTIPPRQSGRGKVTLMIDGRVREMDAMTDGDALKTGSKVRVTEILDENALKVEAM,-0.0493
14,HMRKDEFLQTLRRALNGNVPPRVVEENVRYYDGYISDEVRKGRSEEEVIEEIGDPRLIARTIEDTT,-0.187
15,HMDKEKLQEKLLQIFEAEPQKKFQVQDLVKVLDMEGAGQFKFVVQALADLEHNKQIKLSEDDTFSLIVKE,0.22
16,HMRRVEDVRTALEHFAAARNTTPMAMTLDQRREAMRELAASGLLNLRRALSEVAQTLGVARSTVYTYLP,≥ 0.43
17,HMNSEELFLRRIAQELIDQHGKDLHRIIVVLPSNRSKVFLKKFLFEILGSAFLTPQLMLLPQFVKSIV,-0.34
18,HMNSKIIVESIIKSKNGIAKVADLVEGGVSRQSIKKMYADGYIKRISRGYYTLTSEPVSSDEQVISS,0.39
19,HMVDQKLIQASAEHSGIRIDRFLSEQLPEHSRSYIQKLIKDGQVSIGGKAVKSNYKIAGTEEISLLIPDQ,-0.224
20,HMGYTTSFVVQLKNAVSISFDEIDQNLRKLPGVEDVVIVEEAAMAYLKVDRQHFREEQLAHFEFVRQ,-1.6
21,HMKNEQESIAQKLYEAALKNDFVTIQEIQSGGYRLRNDDLTHMRESGVQSNTLIAIQKIFGL,-0.578
22,HMSGALDTVVGIRMLKLLSTPIEKSKAFQVGIINKDGKKLRDPTSGERQHYTFLNRFVFKVQYALMRS,-0.072
23,HMKSIRIPFILTEGPNSQKITIDIDSDEEFRIGDVFDEDDKLWSINQILISGDRKAKMAIASEVTSISALR,-0.797
24,HMQDVWEPFLAKGYVFADGMLTKLIHKRGDVYKTQEIGSDKIIYVIKDGDTFAHGKTVKAAMLDLAFKKS,-0.392
25,HMFTDEELEHIRSALIQAGIRLSKELGLQKMSVEKLTAAVGIAKGSFYMFFGSKEDFILEVAEYTGAQ,-0.679

row,Sequence,soluble fraction (log2)
1,HMDNWAALLSEREVQVSRLVANGASNKEIADHLAITERTVKAHLTAVFEKLGVRDRLQLSLRVNGL,-1.64
2,HMKQVSDTGAIDAAIREVMDANPDKVAEYRSGKDKLFGFFVGQIMRAMAGKAAPVVVNDRLKALLD,0.32
3,HMSQNVSFTVDSGQAGLRLDVFLSQADPAFSRSQIKYAIEEGDVTVNGKEPKVSQHLKDGDIVELHLE,0.114
4,HMKELLDRIFLHETMRRVSQDATITFSKKVYEVPQKFIGRQVTVQYDPEDLSRVYVKDLNFPEPVMVYPVQ,0.0825
5,HMDPEARRRAILNAAIDVIVEKGAAALTHRAVAARAGVSLGSTTKYFSSIEDLRENAMDALVREMD,-0.756
6,HMVFSNLGSRGEEVRQIQTKLKELGYLQGNVDGIYGNQTKQAVTAFQRDHGLSADGIAGEKTLAALGIG,0.105
7,HMRTNNEITSYKLKSGKKRWKFQTYLGLDDKGQKVSVTRQGFRTYNEAISEYNKLRAQGTQGYQ,≥ 0.43
8,HMPNIHVVFAEEWTDRRLDKVLSEYFDGYSRSFIKKLFDDGLILVNSKAVKPSYKVRAGDMIDISVPDPV,-0.465
9,HMSRLLRTDAHLQYAAERGLPVTASAYTPVFAGAKQYTGRIESFDAQTIRFADGPAVERKAVARLEAE,0.138
10,HMDLQAAWLQTVRHLLAHTEDVGDRFAEEARRIHYGEEPHRGIRGQATPEERLALREEGIETMSIPV,-0.204
11,HMVVDEQRIQTLVSAAEQNSSDPVPRVTLGNLYFDAEQFEEAVKWYEQALALDPRNVNVSTDLGVGYYY,-0.451
12,HMGAAFITSSKDNAINIRQSANTDSKVIETVTNGQILESNEKSGEWHKVTYYDNDIKKSFTGYVHEGQLK,-0.129
13,HMTNIDRLIGQTAIVKETINNKKEQGVVRINGMDWTARTEEIDEVILKGKPVEILDIQGIKLIVRKK,0.161
14,HMDTFYKNLSKKIKTIREKLSFSQEALAKELGISRVAISQIENGDRKISAEEIAKLSRVFNVPTDILLN,0.131
15,HMGQISDDGALKKLASEVLAANPQALADWKAGKQQAVSFLVGQAMKASKGRGDAALLGELIRAALD,0.0477
16,HMREPIPVPSRPIRAGDLVEIPGTNRPAEVTAVKGDRLVLKAGVLSMTVKNDEVRLIEDDERAAM,0.208
17,HMEGIWAVFYDGKPINLKSSSLVANYPGPKYKKVSFSNPGHAENLAKKLNAQHNTDKFGVYLLKSGDKFS,0.219
18,HMLERPLKLKSHYVSTIYEKVAVQYSEGEEKKSVMGTLIEVNQDTIVLDDRGTIIEIPFKSITRAKTVF,-0.364
19,HMLPDHAPITMRQLAMLHVAKNKLDLTDEDYRSLLLLYGGVESSKQLNQEGLRRVLDRFKELGFEP,-0.258
20,HMKPLRPVHLEIQTHRLSPVGILRSSFRQAGKVMHSNHGRITGLNLEQLKLIQAAFAGEALPK,0.0473
21,HMFGGIEFGWSQLPDGRVEYIIQLDDQAIAALKNGRSLTSSLPPEVQNADRIRIQYGAGPVEKGLLLQ,-0.0928
22,HMTVTISPGYEGRLLRSYLKNTLSLSTSALARLKTREDGITVNGVRVTVRYVLHAGDLLQLAVD,0.22
23,HMQQKNWIVRDGDGKIYGPFTTEQVLVQIDRGYFVGGEEVALYPGGRWIAISGAPEFYDRLLDALAMEG,-1.29
24,HMDLDLNIDNYNFDDLLNLFGLKMKFSEDDLKKAKRSVLMTHPDKSGLDKQYFMFFTKAYKMLSQIYYFR,-0.779
25,HMVGAEDISKPMNLGALMRTAHAFGASFFFTINAHPKVRHAYNSDTSRSFDHMPYYPWDTMEE,-0.287

row,Sequence,soluble fraction (log2)
1,HMEKTKLPNLVDFTYRQAEALLQTHGLKVGKVERVPDVGQTVIKAKYKGKVISWGTELNKGEKIDLVIGKG,0.13
2,HMRQNPESFLNHKVKKNESLESLTKKYELTENEIIFYNPLIQKIGLKKRMILKIPIYNNQNLVTKSVD,-0.161
3,HMKELAADFSRRIINARTSKGWSQADLGQRMAETINVIKSAESGKPPTDAVVKKFETVLGVILM,0.22
4,HMTEDELLAQFEEILDGYVGKPGGLIPALQTAQKLFGYLPKRVLQLISMKLDIPYSEVTGVVSFYSFFTTV,-1.12
5,HMAPASADQLIDQLNEKVKAKDDKGVAALLTAAQTKMAELAQKDPKEAQAYVAKLQQWMQSNSENIKAALK,0.204
6,HMTYTGTVTGVDEGGLRVRSSTSTENTSNVITKVYTGDTFDVLDTVYNGSAKWYKIGFTYNGTYTYGYVSA,-0.518
7,HMAVKNAQIDVQQFFYSKSGEVDFGRKIKAIQSHFTPERLQSFTAAVPPSQWVSQLQVMWDSL,-1.68
8,HMSMLGTEQRVLVLGPARKGEGFLMARTDNNRIVNFEGPLSLVDTMVRVKVTDVYPHSLGGQLL,-0.0321
9,HMKPGWEDIFRMNQIQLEDAVRTVNRDDTLAPTKKAYLIQNLLASRWIVGNQLQAQKDKTTE,-0.335
10,HMASLIGEEKALQIALEHAGVALENVAYSQVKLENDDGRWEYDTEFYSGSKEYDYEIDASTGEILGYDHD,-0.0579
11,HMSEEQLKAFLEKVQGDTSLQEKLKAAADANAVVEIAKEAGFSISADDLKNAQSELSEEELE,-0.257
12,HMLQLDATDRALIVATQGGLPLVPRPYQVVGEQLGISGEEVVARLRALLDAGVIRRIGAVPN,0.327
13,HMEELIEMNGVVMEILPDSRYRVTLDNGHKLIAYTGGKMKKNHIRILAGDKVTLELSPYDINNGRITFRHI,-0.146
14,HMSSEPASLVGKTGVAASVLRPSGRVEVNGEYYDAVSINGFIEKGESVFVHKYENAQLYVSKNSE,-0.183
15,HMANVQLAKNLKTLRKKYNYTQQDVSTFLNITRQAYSHYEQALREPDLNTLVHLSRFYQVTLDELI,-1.6
16,HMGSPVTAVMNRVLNETERQIVTLHVISGFKHREIAELLEKPVGTVLWTYNNALGKMRKAMQRE,-0.603
17,HMGVSEIGSPAWMESKLVTLASYEGSLDGLRTLWGGVAQHRARIPVESWDRLFAAKEEGKARLVKLGRT,0.0299
18,HMTKSTSMDLGGFMIVEGSETVRLGGQILQKDVDYTIDYFSGKINFISEEALNPGAEISVSYEENQ,-1.44
19,HMYRIGELAKLADVTPDTIRYYEKQQMMDHDVRTEGGFRLYSDNDLQRLKFIRYARQLGFTLEAIRELLSI,-0.51
20,HMKHSEAIELGKRMLSQALQDVSLVLKKIPEERLQAVAAELNLKTPDELFEKIGLGERLAALVARRLLP,0.0472
21,HMDSSALEPIVDQIIADNPKQVEQFQAGKTKVLGFFVGQVMKQTDGTANPKQVNELVAARLKSA,0.0973
22,HMGFDTVVEKVLGLITSRPMTSRDIQMTLGRSREHTSRLMNRLYKEGLVDRNTSSKPFSYIITEKGREKI,0.424
23,HMEVLEGFIEDIKFKSEESGYTVAKLNNRNKSIVIVGTMPFISEGQHVKLTGEWKIHQKFGAQFNVKELEE,-1.37
24,HMYEGLPVTLIIDGRVIEANLAKANRDMAWLERELANSGVRSHHDVFFATLDSRGQLYYQVKN,-1.35
25,HMTSMTHLGRHPDSEISLDDISVSRRHAEIERQGHEYVLRDSGSLNGTYVNQQRVDSVVLQQGDEIL,-0.277
